Paper PMC2168087
Values belong to the binder of their own block, whether it stands above or below them.

Biological target: GST fusion protein with the cytoplasmic domain of claudin-1 (UniProt O88551)
Test: pull-down

Sequence of UniProt O88551 (O88551 whole entry, the tested form may be a part): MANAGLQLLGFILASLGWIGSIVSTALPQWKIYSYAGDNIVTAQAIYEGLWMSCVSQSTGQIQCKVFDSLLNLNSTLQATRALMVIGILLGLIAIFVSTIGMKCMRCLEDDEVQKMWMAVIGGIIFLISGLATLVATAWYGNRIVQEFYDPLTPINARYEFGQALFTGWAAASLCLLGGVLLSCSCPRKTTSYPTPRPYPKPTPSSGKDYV

Kd: 13 nM
B1: 6xHis-tagged PDZ1 domain of ZO-1 (aa 19-113) (domain or fragment)
chain: WEQHTVTLHRAPGFGFGIAISGGRDNPHFQSGETSIVISDVLKGGPAEGQLQENDRVAMVNGVSMDNVEHAFAVQQLRKSGKNAKITIRRKKKVQ

Kd: 11 nM
B2: 6xHis-tagged PDZ1 domain of ZO-2 (aa 4-100) (domain or fragment)
chain: VIWEQYTVTLQKDSKRGFGIAVSGGRDNPHFENGETSIVISDVLPGGPADGLLQENDRVVMVNGTPMEDVLHSFAVQQLRKSGKIAAIVVKRPRKVQ

Kd: 18 nM
B3: 6xHis-tagged PDZ1 domain of ZO-3 (aa 5-96) (domain or fragment)
chain: TIWEQHTATLYKDPRRGFGIAVSGGHDRASGSVVVSDVVPGSPAEGRLRTGDHIVMVNGVSVENVTSAFAIQILKTCTKTANVTVKRPRRVQ
